Experimental data from PMC5028754 (2016).

B1: Ddi1 UBL-RVP (1-325) (domain or fragment)
chain: MDLTISNELTGEIYGPIEVSEDMALTDLIALLQADCGFDKTKHDLYYNMDILDSNRTQSLKELGLKTDDLLLIRGKISNSIQTDAATLSDEAFIEQFRQELLNNQMLRSQLILQIPGLNDLVNDPLLFRERLGPLILQRRYGGYNTAMNPFGIPQDEYTRLMANPDDPDNKKRIAELLDQQAIDEQLRNAIEYTPEMFTQVPMLYINIEINNYPVKAFVDTGAQTTIMSTRLAKKTGLSRMIDKRFIGEARGVGTGKIIGRIHQAQVKIETQYIPCSFTVLDTDIDVLIGLDMLKRHLACVDLKENVLRIAEVETSFLSEAEIPK
B2: Ddi1 RVP-UBA (180-428) (domain or fragment)
chain: QQAIDEQLRNAIEYTPEMFTQVPMLYINIEINNYPVKAFVDTGAQTTIMSTRLAKKTGLSRMIDKRFIGEARGVGTGKIIGRIHQAQVKIETQYIPCSFTVLDTDIDVLIGLDMLKRHLACVDLKENVLRIAEVETSFLSEAEIPKSFQEGLPAPTSVTTSSDKPLTPTKTSSTLPPQPGAVPALAPRTGMGPTPTGRSTAGATTATGRTFPEQTIKQLMDLGFPRDAVVKALKQTNGNAEFAASLLFQ
B3: full-length yeast Ddi1 (natural protein)
chain: MDLTISNELTGEIYGPIEVSEDMALTDLIALLQADCGFDKTKHDLYYNMDILDSNRTQSLKELGLKTDDLLLIRGKISNSIQTDAATLSDEAFIEQFRQELLNNQMLRSQLILQIPGLNDLVNDPLLFRERLGPLILQRRYGGYNTAMNPFGIPQDEYTRLMANPDDPDNKKRIAELLDQQAIDEQLRNAIEYTPEMFTQVPMLYINIEINNYPVKAFVDTGAQTTIMSTRLAKKTGLSRMIDKRFIGEARGVGTGKIIGRIHQAQVKIETQYIPCSFTVLDTDIDVLIGLDMLKRHLACVDLKENVLRIAEVETSFLSEAEIPKSFQEGLPAPTSVTTSSDKPLTPTKTSSTLPPQPGAVPALAPRTGMGPTPTGRSTAGATTATGRTFPEQTIKQLMDLGFPRDAVVKALKQTNGNAEFAASLLFQ

Assays:
bovine ubiquitin [1] = molecular target: T1, bovine ubiquitin (bovine, UniProt P0CG53 1-76); assay: ITC
bovine ubiquitin [2] = molecular target: T1, bovine ubiquitin; assay: ITC; one-site model, N=2

Binder	Ka (bovine ubiquitin [1]) [M⁻¹]	Ka (bovine ubiquitin [2]) [M⁻¹]
B1	3190	
B2	23400	
B3		3160
